Data taken from the DeepSol protein solubility set.

assay: soluble on expression in E. coli; label from the status in PepcDB or PDB records

Sequence	soluble on expression in E. coli
MTDGSMDIDAMLEGGLEMAKNDRSQSRQRSPARSNRSRSRSKDRKSSSRRSRSRSRDRRGDRGDRRRSRSRSKDRRTTRRRSPSRERRRSRSRDRGAPRRRSRTRSRDRRRSPPRRRDRRTPPRRSPGRRSPPRSRLPGPERRDVMPFNPRHSPPKNAKLELTAEERDQRTLLIMQIARDTRPRDLEEFFSAVGAVRDVRIITDSRTGRSKGICYVEFWDEESVPLGLALNGQRLMGAPLQIQRTCAERNRAANSSVASTLGFVAPGNKGPTHVLVENLHPKIDEKMIRDIFESFGRIEKIDLEVDSNRENRGFATITFRNADDAQKSCEQLNNFELAGRCIRLSIKQESQAPAVKKEEASIHQRSLDDVGDRQGFSLGAGGRQQLMAKLAQGTGSGMELTASAQMAAQHAGHSQIPSIATQCFLLSNMFDPSKETEPAWDHDIREDVIEQCLAHGGALHVFVDKGSEQGNVYVKCPSIVIAHQAVSALHGRWFSGKVITANYVPVNSYHDLFPDAVHARIVLTTRGAAPVVPIVPMVPVVPPQGIANGYGAYGMMAPAHGAPPPPPPQQQGQYGGYGRY	not soluble
MTPDPLYMRRAIELAQNAEGFTSPNPLVGAVLVAHGRIIGEGYHHCAGMPHAEVIAINSVRDRALLRESTLYVSLEPCSHYGKTPPCAELILREGIPHVVVAMLDPFPSVSGRGIKMLRDAGVSVQVGLLAEEAEELNRHFLTAQRQHRPYVTLKWAESSDGFIDALRDDASTPPVRLSTPLTTRFVHHRRMIHDAILVGFRTALLDNPSLTVRHWYGRNPLRVVTDRHLALPRHLTLFDGSVPTLVFTEKEQPSGYPSAVSFVRIDPSRPPVEQMLAELHARGIQSLLVEGGACILRSFIDSGLYDDVRIEHSTIILNEGVRAPHLPSY	not soluble
MFLDEHINRNFDKLNDNDLHIAHFINTHIDECKNMKIQDLAQFTHASNATIHRFTRKLGFDGYSDFKSYLKFESNKTHQLPSNSIDSFKQEIDSTFSYLERVDYQLLTEKMHTA	not soluble
IEPEFIGNENYKNLIVSWGTTYYPIKDALEELNLKDTAFIHFSQIYPISESGEKYLKKAEKVVNIELNYTGQLGRLLKREFGIEMNDSILKYDGRVFSVEELSEKIKKVLRG	not soluble
MGSDKIHHHHHHQQLLLIEKLDGTLEDYLFSDDFDEKVLLSCLFQISFSLHYLQKHYKFTHNDLHINNVMYSETTTKYLYYKFNNQYFKIPTYGKIFKIIDFGRSIFTYNNKIYMNDVFTKNSEAWGQFYYPPQVQFLTKPPEDIPNIEPNYNFDLCRLSMTIIEEIDKSKLSENMFNFLNDMCIDKFNENYCEMEDNFSLYINISKNAINSLPEDILNKTIFKQYKVIKKNFPSKLYYK	not soluble
MSLASIRTRIMILSDTHAQRFQPGLEPLEPVDLVIHCGDLTNNSTLRDYREAIHLLDSIKAPLKIVIAGNHDFSLDDKAYRRKIRETCRINQENLSGAIKAEYGQVGEAQQILLEAVAKGITFLSEGPHQLQLPSNSVLELYVSPYTPTHNCPGWGFQYDGIHDFNIKQGTDIVITHGPPLGIMDLTSNNERIGCPQLFAAVARAQPRVHCFGHVHEGWGAKLVSWRPNEGHHHHHH	not soluble
MSDIFNSPQNKASILTALMKSTTGDVEDVLIPKRFRPAKDPLDSPQAAAQFLKDNKYRILRPRAIPTMVELETDAALPRLRQMVEDGKLKDTVSVPEGTTAFYPKYYPFHKPDHDEVGTFGAPDITLLKQLTFFLLENDFPTGPETLRQVREAIATLQYGSGSYSGQLNRLLAMKGVATGRNPNKTPKTVGYTNEQLAKLLEQTLPINTPKHEDPDLRWAPSWLINYTGDLSTDKSYLPHVTIKSSAGLPYIGKTKGDTTAEALVLADSFIRDLGRAATSADPEAGVKKTITDFWYLSCGLLFPKGERYTQVDWDKKTRNIWSAPYPTHLLLSMVSTPVMNESKLNITNTQTPSLYGFSPFHGGMDRIMTIIRDSLDNDEDLVMIYADNIYILQDNTWYSIDLEKGEANCTPQHMQAMMYYLLTRGWTNEDGSPRYNPTWATFAMNVAPSMVVDSSCLLMNLQLKTYGQGSGNAFTFLNNHLMSTIVVAEWVKAGKPNPMTKEFMDLEEKTGINFKIERELKNLRETIVEAVETAPQDGYLADGSDLPPIRPGKAVELDLLGWSAIYSRQMEMFVPVLENERLIASAAYPKGLENKALARKPGAEIAYQIVRYEAIRLVGGWNNPLLETAAKHMSLDKRKRLEVKGIDVTGFLDDWNNMSEFGGDLEGITLSEPLTNQTLVDINTPLDSFDPKARPQTPRSPKKTLDEVTTAITSGTYKDPKSAVWRLLDQRTKLRVSTLRDQALALKPASSSVDNWAEATEELAQQQQLLMKANNLLKSSLTETREALETIQSDKIIAGKSNPEKNPGTAANPVVGYGEFSEKIPLTPTQKKNAKRREKQRRNQ	not soluble
PKTGPTMTKELVFSSNIGQHDLDTKSKQIQQWIEKKYHVQVTIKRRKDAEQSEEETEEIFNQILQTMPDIATFSSRPKAIRGGTASMCVFRHLSKKEEK	soluble
MKKEEGLTENTGLPRKLLEKHDPWPAYVTYTSQTVKRLIEKSKTRELECMRALEERPWASRQNKPSSVIQPKRRKSSKSSGKAVFRDTLSESTLSMWGAYSVLAMAPTMIPEPTHLHADSRDCPTENYNKIIFARKPMMRMLPTVRY	not soluble
MEEPMEVDNKRPKVLTWTEKYRPKTLDDIAYQDEVVTMLKGALQGRDLPHLLFYGPPGTGKTSAALAFCRQLFPKNIFHDRVLDLNASDERGIAVVRQKIQSFSKSSLGHSHREDVLKLKIIILDEVDAMTREAQAAMRRVIEDFSKTTRFILICNYVSRLIPPVVSRCAKFRFKSLPAEIQVQRLRTICDAEGTPMSDDELKQVMEYSEGDLRRAVCTLQSLAPILKSGDDNARNCYLRGSSDSLLISNVCKSILTADVPQIIALTKDITKSCTGVAFIRRCFQQLMDEDVINDENIGVMGKLVATCEKRILDGCDLENNLLDFLLTLRETIQ	not soluble
MSLTSNIFSGCMPALMTPCKADRSPDFDALVKKGKELIEAGMSAVVYCGSMGDWPLLTDEQRMEGVERLVKAGVPVVVGTGAVNTRVAVAHAAHAAKVGARGLMVIPRVLSRGSSVSAQRNHFSDILKAAPSLPAVIYNSPYYGFATRADLFFDLRREFPNLIGFKEFGGLADLRYAAENITSQDDQVTLMVGVDTAVYHGFVNCGATGAITGIGNALPKEVLHLVALCQKAAEGHAEARLRARELEEALAVLSSFDEGSDLVLYYKHLMVLNGEDEYRLHFNETDALSDAQRNYAEAQYELFRTWYADWSTKGEGHHHHHH	soluble
MTQKRTLLKYGILSLALAAPLSACAFDSLTVIGDSLSDTGNNGRWTWDSGQNKLYDEQLAERYGLELSPSSNGGSNYAAGGATATPELNPQDNTADQVRQWLAKTGGKADHNGLYIHWVGGNDLAAAIAQPTMAQQIAGNSATSAAAQVGLLLDAGAGLVVVPNVPDISATPMLLEAVITAGLGAAAPPALKAALDALAEGATPDFASRQQAIRKALLAAAATVSSNPFIQQLLVEQLLAGYEAAAGQASALTDYYNQMEEKGLEQHGGNIARADINGLFKEILANPQAFGLTNTVGMACPPGVSASACSSAMPGFNASQDYLFADHLHPGPQVHTIIAQYIQSIIAAPVQATYLNQSVQSMAQGSRTTLDSRYQQLRQGENPVGSLGMFGGYSGGYQRYDNNEADGNGNHNNLTVGVDYQLNEQVLLGGLIAGSLDKQHPDDNYRYDARGFQAAVFSHLRAGQAWLDSDLHFLSAKFSNIQRSITLGALRRVEEGETNGRLWGARLTSGYDFVMVPWLTTGPMLQYAWDYSHVNGYSEKLNTSTSMRFGDQNAHSQVGSAGWRLDLRHSIIHSWAQINYRRQFGDDTYVANGGLKSTALTFSRDGKTQDKNWVDIAIGADFPLSATVSAFAGLSQTAGLSDGNQTRYNVGFSARF	not soluble
MGSDKIHHHHHHMIDFHVHTTFSDSTMTPAVAVRHAKMAGYRAVALTDHADHANMDLILRQTLPLARKYSLYAGIEVFAGVELTHVPPALIPEAVREARAMGAQLVLVHGETISDAVETGTNLAAIEGGVDILAHPGLVSDEDAAYAAERGVRFEITTRPGHALTNGHVAMAARRHGVRCVINNDAHHSRDFVNPDHRLAVALGAGLTTAEVTAAEAESRTLLGRLLREVR	not soluble
MNAQRVVVMGLGNLLWADEGFGIRVAERLYARYHWPEEVEIVDGGTQGLNLLGYVEQASHLLLLDAIDYGLAPGSLRTYAGEKIPAYLSAKKMSLHQNSFSEVLALADIRGHLPCHIALVGLQPALLDDYGGSLSEIARSQLPAAEQAALAQLAAWGIVPQANEVARCLNYKCLSMENYEGVRIRQYQTRLEGKRSGE	not soluble
YIQLEGEKFNESARVFTEYLKTKTSDEIPSLLQSYSKSLTISAHLKRDIVDKRLPLVHDLDIKDGKLSNYIVMLDMSVSTADGKQVTVQFVHGVDVYKEAKNI	not soluble
GSFLPNSEQQKSVDIVFSSPQDLTVSLIPVSGLKAGKNAPSAKIAKLVVNSTTLKEFGVRGISNNVVDSTGTAWRVAGKNTGKEIGVGLSSDSLRRSDSTEKWNGVNWMTFNSNDTLDIVLTGPAQNVTADTYPITLDVVGYQP	soluble
MRSSQAIDFERIPEMEDKWRKEITAMTVTLQDKRKAIQNDEILRGVHPKSHGCLDAEFTVNRDIAPQFQVGLFAQPGKCFRARIRYSNADVLKRADLEKGQDATGARFLNHGSRGMAIKVLDVGAPVLLEDGCARNQDFLMVNTPEFAFRNVRDYLRLTKALCASADGADPLLFFLPGELLKRGMMDMSGSLLPAPAGEPPQNAGLRALFEANRAFFDDFDAEDMQGVISAAGVVGKIQSTPVRNPLFAPYFSAASFRFGKDRVMRFSVVPLQSEEMAADMASDAFEDFSDDYLSQALALSVATNEPIKLSFRIQIAHEEDIVNDIDGMIENAAKTWDEDQFSHTEVAQITINPPCPSAELVDTCKPLLFTPWHAVVDFEPLGGINRLRKPVYSTSAAFRRSVLEHHHHHH	not soluble
MEIIKIDSHKDIEQQEDSVLVLGYFDGLHRGHKELFNQAREIAQKMQLKIVVLTFPESPQLAFTRFEPDLLNHINYPEKRYCKFAEYGVDCLYLTDFTSSFAKISSDDFIKNYIKALKAKAVVMGFDYKFSHSKANSDYLKHHFAGQVITVPEVQYEGKKISSTRVRQLIKQGDMTQVNRLLGYEFSTRGIVVHGDARGRTIGFPTANLAPLDRTYLPADGVYVADVIVGRKRYRSMTSIGKNITFGGTELRLEANIFDFDDDIYGETIEIFWLNKIREMVKFNSVNDLVEQLKSDKEIAINWGKS	not soluble
MGLALQHSHRWDLSPREAANLQTRLRPLVLAEDALPDEIRTVAGVDVGFEDHGRITRAAVAVLDFPSLRPSDQAIVRRPTRFPYVPGLLSFRELPALLEALERLNLLPGLILVDGHGYAHPRRFGIACHLGVLTGIPTIGVGKTRLVGTHGELAEDRGSWIPLIDGDETVGAVVRTRRGVQPVYVSVGHRLSLPTAVDWVLRCTPRYRLPETTRQAHRLASALEHHHHHH	not soluble
MISDRPGLPGEDMRLALLSFENYLLANRNTEKPVLHIALSPAPEDKLTDEQLAELAQNYMQKMGYGDQPYIAYKHGDTHNTHIHIVSVCVDEEGRKINDSFEHRRSMTACRELEIDFGLRNGADMEERNQKAEMKKVDATQGDVRHQIGNTLKAVLESYRFQTFGEYSALLSTLNIEAKQVRGEFKGEPYTGIIYSATDDSGKVVSPPFKSSRFGKRFGNERLEKRMLSHTRDFKDGKWAPTIHAQVVYAMRHARSREELAGLLKKARIDAVFRENEQGRIYGVTFIDHNRREVFNGSRMGKEFSANIYNELFKWWDGIPATERSAHTGTELWQHHSHKAESGSPLEQAASIFSMETNPVDYGEEALARRMKKRRKAKRKSRGILEHHHHHH	soluble
